From patent US20230054202A1 (ZYDUS LIFESCIENCES, published 2023)

Legend:
[1] = molecular target: T1, native human purified properdin (Quidel; Cat No: A412) (human, UniProt P27918 28-469); assay: SPR (ProteOn XPR36), human properdin amine-coupled on GLC chip, mAb injected, 25 C, PBS pH 7.4
T1 construct: mature; Native purified commercial protein; In the haemolysis assays the properdin is the one present in normal human serum; also called human properdin; factor P
Experimental: The kinetic rate constants for the binding of anti properdin candidates to native human purified properdin (Quidel; Cat No: A412) were determined by Surface plasmon resonance-based measurement using the ProteOn XPR36 (Bio-Rad). All binding measurements were performed in PBS (pH 7.4, 0.005% Surfactant P20) at 25° C. To measure the binding rate constants of properdin to the mAbs, human properdin was immobilized onto a GLC sensor chip using amine coupling chemistry. […] The data, in the form of sensograms were analysed using data-fitting programs integrated in the ProteOn system. Binding affinities in terms of KD value are provided for tested antibodies in table 7.

[2] = molecular target: T1, native human purified properdin …; assay: SPR, purified hybridoma antibody on human properdin
[3] = molecular target: T2, recombinant human neonatal Fc receptor (rhFcRn), Sino Biologics (human, UniProt P55899 24-297; P61769 21-119); assay: SPR (ProteOn XPR36), rhFcRn immobilized on GLC chip, antibody injected, PBS pH 6.0, 25 C
T2 construct: Bought protein
Experimental: The kinetic constants for the binding of antibodies to recombinant human neonatal Fc receptor (hFcRn) were determined by Surface plasmon resonance-based measurement using the ProteOn XPR36 (Bio-Rad). Recombinant rhFcRn receptor (Sino Biologics) was immobilized on a GLC chip following manufacturer's instruction. […] Reactions were carried in PBS (pH 6.0, 0.005% Surfactant P20) at 25° C. After each sample run, the chip surface was regenerated using PBS, pH 7.4. The data, in the form of sensograms, was analysed using the data-fitting programs in the ProteOn system.

T1 sequence (P27918 28-469): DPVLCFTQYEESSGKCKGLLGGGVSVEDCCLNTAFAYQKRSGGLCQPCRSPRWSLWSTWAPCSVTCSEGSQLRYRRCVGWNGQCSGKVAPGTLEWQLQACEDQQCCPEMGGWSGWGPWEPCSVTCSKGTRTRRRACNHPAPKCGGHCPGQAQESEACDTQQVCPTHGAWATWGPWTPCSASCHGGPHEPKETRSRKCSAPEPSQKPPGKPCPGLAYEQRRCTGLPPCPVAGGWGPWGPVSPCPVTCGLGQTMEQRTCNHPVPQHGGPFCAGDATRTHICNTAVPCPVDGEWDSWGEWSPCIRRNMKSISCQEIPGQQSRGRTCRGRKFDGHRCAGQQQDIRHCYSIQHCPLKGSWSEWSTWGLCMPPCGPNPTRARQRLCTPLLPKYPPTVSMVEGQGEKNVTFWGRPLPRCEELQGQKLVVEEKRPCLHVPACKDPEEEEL

Kd [1] [nM]	koff [1] [s⁻¹]	kon [1] [M⁻¹ s⁻¹]	Kd [2] [nM]	koff [2] [s⁻¹]	kon [2] [M⁻¹ s⁻¹]	Kd [3] [nM]	koff [3] [s⁻¹]	kon [3] [M⁻¹ s⁻¹]	Binder
2.81	0.00151	540000							P14 (humanized version of 124F9) (antibody, IgG4, V domains shown, Full-length humanized IgG4 made in CHO-S; also called pZRCIII Hyg P14LC-P14HC) VH: QVQLQESGPGLVKPSQTLSLTCTVSGYSITSGYYWNWIRQHPGKGLEWIGYISYDGGNKYNPSLKSRVTISRDTSKNQFSLKLSSVTAADTAVYYCARDLDGYESMDYWGQGTSVTVSS VL: DIVMTQSPLSLSVTPGQPASISCKSSQSLLDINGKTYLNWYLQKPGQSPQLLIYLVSKLDSGVPDRFSGSGSGTDFTLKISRVEAEDVGVYYCWQGTHFPYTFGQGTKVEIKR
			0.731	0.000509	696000				103B2 (antibody, V domains shown, Murine hybridoma antibody purified by Protein A; also called murine anti-properdin hybridoma mAb 103B2) VH: KPSQSLSLTCSVTGYSITSTYYWNWIRQFPGNKLEWMGYISYDGTNKYNPSLKNRISITRDTSKNRFFLKLNSVTTEDTATYYCAGDDYDRSPWFAYWGQGTLVTVSA VL: DIVLTQSPASQSASLGESVTITCLASQTIGTWLAWYQQKPGKSPQLLIYAATSLADGVPSRFSGSGSGTKFSFKISSLQAEDFVSYYCQQLYSTPWTFGGGTKLEIKR
2.07	0.000867	420000							P11 (humanized version of E12) (antibody, IgG4, V domains shown, Full-length humanized IgG4 made in CHO-S; also called pZRCIII Hyg E12LC-E12HC) VH: QVQLQQSGPELVRPGVSVKISCKGSGYTFTDYALHWVKQSHAESLEWIGVISTYYGDASYNQKFKDKATMTVDISSSTAYLELARLTSEDSAIYYCARDGYLDYWGQGTLVTVSS VL: QSVLTQPPSVSAAPGQKVTISCSGSSSNIGNNYVSWYVQLPGTAPKLLIYDNNKRFSGVPDRFSGSKSGTSATLGITGLQTGDEADYYCGAWDGSLREAVFGGGTKVTVLR
0.162	0.000128	792000				66	0.0329	502000	P15 (GLS) (humanized version of 103B2 with GLS in constant region) (antibody, human IgG4 S228P, also called pZRCIII Hyg P15LC-P15HC (IgG4 GLS); copies: 2 + 2) heavy: not shown VL: DIQMTQSPSSLSASVGDRVTITCLASQTIGTWLAWYQQKPGKAPKLLIYAATSLADGVPSRFSGSGSGTDFTLTISSLQPEDFATYYCQQLYSTPWTFGGGTKLEIKR
0.154	0.000142	925000				554	0.125	227000	P15 (humanized version of 103B2) (antibody, human IgG4 S228P, also called pZRCIII Hyg P15LC-P15HC; copies: 2 + 2) heavy: not shown VL: DIQMTQSPSSLSASVGDRVTITCLASQTIGTWLAWYQQKPGKAPKLLIYAATSLADGVPSRFSGSGSGTDFTLTISSLQPEDFATYYCQQLYSTPWTFGGGTKLEIKR
